Here are results for 16 variants from IntAct's records for PubMed 18532879.

Sequences and labels used below:
B1: Nuclear polyadenylated RNA-binding protein NAB2 (Saccharomyces cerevisiae), P32505 (parent)
chain: MSQEQYTENLKVIVAEKLAGIPNFNEDIKYVAEYIVLLIVNGGTVESVVDELASLFDSVSRDTLANVVQTAFFALEALQQGESAENIVSKIRMMNAQSLGQSDIAQQQQQQQQQQQPDIAQQQPQQQPQQQPQQQPQQQPQQQPQQQPQQQPQQQPQLQPLQPQLGTQNAMQTDAPATPSPISAFSGVVNAAAPPQFAPVDNSQRFTQRGGGAVGKNRRGGRGGNRGGRNNNSTRFNPLAKALGMAGESNMNFTPTKKEGRCRLFPHCPLGRSCPHAHPTKVCNEYPNCPKPPGTCEFLHPNEDEELMKEMERTREEFQKRKADLLAAKRKPVQTGIVLCKFGALCSNPSCPFGHPTPANEDAKVIDLMWCDKNLTCDNPECRKAHSSLSKIKEVKPISQKKAAPPPVEKSLEQCKFGTHCTNKRCKYRHARSHIMCREGANCTRIDCLFGHPINEDCRFGVNCKNIYCLFRHPPGRVLPEKKGAAPNSNVPTNERPFALPENAIIENAPPQTSFTHQEQDTEMN
partner: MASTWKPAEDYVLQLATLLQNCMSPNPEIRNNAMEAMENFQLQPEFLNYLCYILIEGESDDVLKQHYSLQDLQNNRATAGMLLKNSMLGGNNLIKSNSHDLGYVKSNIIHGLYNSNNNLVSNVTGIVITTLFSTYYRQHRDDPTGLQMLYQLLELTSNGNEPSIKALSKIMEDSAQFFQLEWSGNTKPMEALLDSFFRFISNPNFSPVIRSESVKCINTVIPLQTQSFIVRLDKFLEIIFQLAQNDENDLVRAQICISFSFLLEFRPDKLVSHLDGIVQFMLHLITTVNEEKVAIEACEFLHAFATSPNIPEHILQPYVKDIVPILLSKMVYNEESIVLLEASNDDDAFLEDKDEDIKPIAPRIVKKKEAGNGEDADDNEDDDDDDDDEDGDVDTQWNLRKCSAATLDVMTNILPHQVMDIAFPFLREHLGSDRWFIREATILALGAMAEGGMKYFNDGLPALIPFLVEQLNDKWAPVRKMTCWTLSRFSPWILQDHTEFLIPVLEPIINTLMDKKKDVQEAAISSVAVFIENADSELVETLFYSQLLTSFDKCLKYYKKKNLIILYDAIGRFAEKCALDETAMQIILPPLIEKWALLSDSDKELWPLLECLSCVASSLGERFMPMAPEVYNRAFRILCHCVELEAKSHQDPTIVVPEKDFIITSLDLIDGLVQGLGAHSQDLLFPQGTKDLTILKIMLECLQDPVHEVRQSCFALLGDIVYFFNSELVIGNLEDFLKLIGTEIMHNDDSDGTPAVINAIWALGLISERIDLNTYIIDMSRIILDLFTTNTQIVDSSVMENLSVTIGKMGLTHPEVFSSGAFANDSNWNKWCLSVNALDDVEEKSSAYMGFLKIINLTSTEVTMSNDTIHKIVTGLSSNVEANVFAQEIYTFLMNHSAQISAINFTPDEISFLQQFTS
B2: Nuclear polyadenylated RNA-binding protein 4 (Saccharomyces cerevisiae), Q99383 (parent)
chain: MSSDEEDFNDIYGDDKPTTTEEVKKEEEQNKAGSGTSQLDQLAALQALSSSLNKLNNPNSNNSSSNNSNQDTSSSKQDGTANDKEGSNEDTKNEKKQESATSANANANASSAGPSGLPWEQLQQTMSQFQQPSSQSPPQQQVTQTKEERSKADLSKESCKMFIGGLNWDTTEDNLREYFGKYGTVTDLKIMKDPATGRSRGFGFLSFEKPSSVDEVVKTQHILDGKVIDPKRAIPRDEQDKTGKIFVGGIGPDVRPKEFEEFFSQWGTIIDAQLMLDKDTGQSRGFGFVTYDSADAVDRVCQNKFIDFKDRKIEIKRAEPRHMQQKSSNNGGNNGGNNMNRRGGNFGNQGDFNQMYQNPMMGGYNPMMNPQAMTDYYQKMQEYYQQMQKQTGMDYTQMYQQQMQQMAMMMPGFAMPPNAMTLNQPQQDSNATQGSPAPSDSDNNKSNDVQTIGNTSNTDSGSPPLNLPNGPKGPSQYNDDHNSGYGYNRDRGDRDRNDRDRDYNHRSGGNHRRNGRGGRGGYNRRNNGYHPYNR
partner: B1 partner

Variants of B1 are the subject of the first test. Particulars: with imb2_yeast KAP104, P38217.
On to R235A;P238A;L239A, for which the “effect of a mutation on the interaction” value was “disrupting interaction”.

Take R218A;R219A;R222A;R226A;R229A: the “effect of a mutation on the interaction” value is “disrupting interaction strength”. For P238A;L239A, the “effect of a mutation on the interaction” value is reported as “disrupting interaction”. Same read-out and setting: as for L239I, the entry is “disrupting interaction strength”. Still for that read-out and setting: under L239P stands “disrupting interaction strength”; under L239D, “disrupting interaction strength”; under L239E, “disrupting interaction strength”.

As to R222A;P238A;L239A, the “effect of a mutation on the interaction” value is reported as “disrupting interaction”. F236A: the “effect of a mutation on the interaction” value was “disrupting interaction”. Still for that read-out and setting: under R235A stands “disrupting interaction”; under K216A;N217A;R218A;R219A, “disrupting interaction”.

In the next test the parent is B2. Particulars: with imb2_yeast KAP104, P38217.
Take Y529A: the “effect of a mutation on the interaction” value was “disrupting interaction”. R512A;R513A;R516A;R519A: the “effect of a mutation on the interaction” value was “disrupting interaction strength”.

Regarding Y532H, the “effect of a mutation on the interaction” value was “disrupting interaction strength”.

For Y532F, the “effect of a mutation on the interaction” value is given as “disrupting interaction strength”. Same read-out and setting: as for Y532M, the entry is “disrupting interaction strength”.
